Experimental data from article PMC12386978.

Biological target: K151Q/R mutants
Assay: split reporter (BiFC, NanoBiT); split-luciferase complementation; HEK293T cells co-transfected with NLuc-mCRY1 (wild-type or mutant) and a CLuc fusion of the partner; bioluminescence read 24 h after transfection in DMEM with 100 uM D-luciferin

CLuc-BMAL1, sequence (Q9WTL8 whole entry): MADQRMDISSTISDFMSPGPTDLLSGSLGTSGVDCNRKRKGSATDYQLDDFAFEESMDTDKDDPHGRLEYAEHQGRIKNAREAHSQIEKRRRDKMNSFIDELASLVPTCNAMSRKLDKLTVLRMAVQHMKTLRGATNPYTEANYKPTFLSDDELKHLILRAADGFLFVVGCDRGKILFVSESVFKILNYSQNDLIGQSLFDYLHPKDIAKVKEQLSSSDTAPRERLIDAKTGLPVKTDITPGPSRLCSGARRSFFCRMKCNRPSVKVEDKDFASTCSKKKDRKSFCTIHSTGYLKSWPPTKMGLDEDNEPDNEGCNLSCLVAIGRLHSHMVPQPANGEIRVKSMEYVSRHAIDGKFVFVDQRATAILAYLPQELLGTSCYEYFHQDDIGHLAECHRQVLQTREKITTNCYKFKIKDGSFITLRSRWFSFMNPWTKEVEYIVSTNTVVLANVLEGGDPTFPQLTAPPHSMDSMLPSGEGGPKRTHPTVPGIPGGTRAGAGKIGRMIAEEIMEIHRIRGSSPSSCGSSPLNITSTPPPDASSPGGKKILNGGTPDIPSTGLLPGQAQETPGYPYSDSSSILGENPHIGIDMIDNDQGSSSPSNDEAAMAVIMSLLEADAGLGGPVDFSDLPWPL

binding rate, percent of the wild type (% of the wild type): 50 to 60
Substance: CLuc-BMAL1 (from UniProt Q9WTL8 1-632) (natural protein)
